Eight molecules from patent publication US20250011430A1 (GUANGZHOU BIO GENE TECHNOLOGY, published 2025) can be followed below.

Assay [1] has as its target T1, B7H3 on cells (B7H3 on HEK293 cells; B7H3 expressed from plasmid on HEK-293T and QT6 cells) (human, UniProt Q5ZPR3 29-534).
T1 construct: whole, on cells; also called HEK293 B7H3 proteins; human B7H3
T1 sequence (looked up): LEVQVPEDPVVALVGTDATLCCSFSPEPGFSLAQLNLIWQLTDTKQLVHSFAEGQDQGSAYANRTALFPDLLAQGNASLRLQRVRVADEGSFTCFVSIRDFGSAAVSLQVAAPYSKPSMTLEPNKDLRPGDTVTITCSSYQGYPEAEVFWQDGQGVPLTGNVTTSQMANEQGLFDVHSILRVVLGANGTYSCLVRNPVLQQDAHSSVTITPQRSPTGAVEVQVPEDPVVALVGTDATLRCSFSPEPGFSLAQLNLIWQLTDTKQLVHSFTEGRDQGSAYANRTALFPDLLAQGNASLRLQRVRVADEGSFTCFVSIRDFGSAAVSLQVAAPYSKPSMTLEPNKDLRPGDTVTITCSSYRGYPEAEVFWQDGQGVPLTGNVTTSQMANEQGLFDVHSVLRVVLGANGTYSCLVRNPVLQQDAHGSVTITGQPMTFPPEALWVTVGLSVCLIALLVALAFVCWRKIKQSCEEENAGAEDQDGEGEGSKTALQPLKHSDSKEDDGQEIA
The experiment in a line: flow cytometry on HEK293 cells. Here is the method:
(§1) 2×10⁵ HEK293 cells were resuspended with PBS+5% BSA and incubated for 30 min at 4° C. Different concentrations of humanized antibody (5 μg/mL to 0.002286 μg/mL, 3-fold gradient dilution) were added and incubated for 60 min at 4° C. After centrifugation and washing, a PBS+5% BSA solution containing an FITC-labeled secondary antibody (1:200, sigma, F9512) was added and incubated on ice for 30 min in the dark. Cells were washed three times before the flow cytometry analysis. EC50 was calculated using GraphPad software.
(In flow cytometry, cells or beads pass a laser one at a time.)

Assay [2] addresses T1, B7H3 on cells (B7H3 on HEK293 cells; …). The experiment in a line: flow cytometry on HEK293 cells (text value, conflicts with Table 2). Here is the method:
as §1

Assay [3] shares this target. The experiment in a line: flow cytometry on HEK293 cells, FITC-labelled secondary antibody; y axis without title. Here is the method: 5×10⁵ HEK293 cells were resuspended with PBS+5% BSA and incubated for 30 min at 4° C. Different concentrations of antibody (1 μg/mL to 0.01 μg/mL, 10-fold gradient dilution) were added and incubated for 60 min at 4° C. After centrifugation and washing, a PBS+5% BSA solution containing an FITC-labeled secondary antibody (1:200, sigma, F9512) was added and incubated on ice for 30 min in the dark. Cells were washed three times before the flow cytometry analysis.
Using the flow cytometry method, the control antibodies (huM30, Eno) and the 2B8, 26B8, 23H1 and 6F7 antibody were tested for their binding abilities to HEK293 B7H3 proteins at a final concentration of 1 μg/mL, 0.1 μg/mL and 0.01 μg/mL, respectively. Compared with the control antibodies, the 2B8, […], 23H1 and 6F7 antibody each have the same or better binding ability to the HEK293 B7H3 proteins.

Substitutions are numbered along the chain they refer to.

B1: humanized 2B8 (antibody, V domains shown)
VH: QVQLVQSGAEVKKPGASVKVSCKVSGYTFTDGAMHWVRQAPGQGLEWIGIINTNSGNTNYNQKFQGRVTMTRDTSISTAYMELSRLRSEDTAVYYCARGVFYYGYGAWFAYWGQGTLVTVSS
VL: DIQLTQSPSFLSASVGDRVTINCRASKTISNYLAWYQQKPGKAPKLLIYSGSTLQSGVPSRFSGSGSGTDFTLTISSLQPEDFATYYCQQHHEYPLTFGGGTKVEIKR
notes: also called hz2B8; h2B8
B1: in assay [1], a half-maximal response (EC50) required 0.0779 µg/mL.

B2: chimeric antibody ch2B8 (antibody, V domains shown)
VH: QVQLQQSGPELVRPGVSVKISCKVSGYTFTDGAMHWVKRSHAKSLEWIGIINTNSGNTNYNQKFQGKATMTVDKSSSTAYMELARLTSEDSAIYYCARGVFYYGYGAWFAYWGQGTLVTVSA
VL: DVQITQSPSYLTASPGETIIINCRASKTISNYLAWYQEKPGKTNKLLIYSGSTLQSGIPSRFSGSGSDTDFTLTISSLEPEDFAMYYCQQHHEYPLTFGAGTKLELKR
For B2, in assay [1], the EC50 stood at 0.132 µg/mL.

B3: chimeric antibody ch26B6 (antibody, V domains shown)
VH: EVQLQQSGPELVKPGASVKISCKTSGYAFTEYTMHWVKQSQGKSLEWIGGINPNTGGTTYNQKFNGKATLTVDRSSSTAYMELRSLTSEDSAVYYCTRPYRDDGGFHWYFDVWGAGTAVTVSS
VL: QIVLTQSPAVMSTSPGEKVTMTCSASSSVSYMQWYQQKSGTSPKRWIYDTSKLTSGVPARFSGSGSGTSYSLTISSMEAEDAATYYCQQWSSNPLTFGAGTKLELKR
On to B3, for which the EC50 in assay [1] came out at 0.224 µg/mL; in assay [2], 0.232 µg/mL.

B4: humanized 6F7 with light chain variable region LV1 (antibody, V domains shown)
VH: EVQLVESGGGLVQPGGSLRLSCAASGFTFTDYYMSWVRQAPGKGLEWVAFIRNKANGYTTEYSASVKGRFTISRDDSKNSLYLQMNSLRAEDTAVYYCARDSHYRPFAYWGQGTLVTVSS
VL: DIVMTQSPLSLPVTPGEPASISCKSSQSLLNSGNQNNYLTWYLQKPGQSPQLLIYLASTRDSGVPDRFSGSGSGTDFTLKISRVEAEDVGVYYCQNDYTYPLTFGGGTKVEIKR
notes: also called hz6F7L1; h6F7H1L1
The molecule B4 had an EC50 in assay [1] of 0.604 µg/mL.

B5: humanized 6F7 with light chain variable region LV2 (antibody, V domains shown)
VH: B4 VH
VL: DIVMTQSPDSLAVSLGERATINCKSSQSLLNSGNQNNYLTWYQQKPGQPPKLLIYLASTRDSGVPDRFSGSGSGTDFTLTISSLQAEDVAVYYCQNDYTYPLTFGGGTKVEIKR
notes: also called hz6F7L2; h6F7H1L2
In assay [1], B5 displayed an EC50 of 0.41 µg/mL.

B6: anti-B7H3 antibody 23H1 (antibody, V domains shown)
VH: EVKLVESGGGLVQPGGSLRLSCATSGFTFTDYYMSWVRQPPGKALEWLGFIRNKVNDYTTEYSVSVKGRFTISRDNSQTILYLQMNTLRAEDSATYYCARDSPYRPFAYWGQGTLVTVSA
VL: DIVMTQSPSSLTVTAGENVTMSCKSSQTLLNNGNQKNFLTWYQQKPGQPPKLLIYLASTRESGVPDRFTGSGSGTDFTLTISSVQAEDLAVYYCQNDYTYPLTFGAGTKLELKR
Take B6: the binding result in assay [3] is “binds”.

B7: chimeric antibody ch6F7 (antibody, V domains shown)
VH: B6 VH with V55A, D57G, V64A, R74S, N76D, T79S, P103H
VL: B6 VL with V3Q, N18K, T28S, N32S, K36N, F38Y, E61D
For the molecule B7, it took 0.224 µg/mL to reach a half-maximal effect in assay [2] (EC50).

B8: humanized 26B6 (antibody, V domains shown)
VH: EVQLVQSGAEVKKPGASVKVSCKASGYTFTEYTMHWVRQAPGQGLEWIGGINPNTGGTTYNQKFNGRVTMTRDTSISTAYMELSSLRSEDTAVYYCTRPYRDDGGFHWYFDVWGQGTLVTVSS
VL: EIVLTQSPATLSLSPGERATLSCSASSSVSYMQWYQQKPGLAPRLLIYDTSKLTSGIPDRFSGSGSGTDFTLTISRLEPEDFAVYYCQQWSSNPLTFGGGTKVEIKR
notes: also called hz26B6; h26B6
As for B8, the EC50 in assay [1] stood at 0.306 µg/mL.

As a reminder, the EC50 is the concentration giving half of the maximal effect. The low end stands for an effect from little substance, the high end for a need for much substance.
